Test results: patent publication US6994976

Target: mouse TR3 (mouse) (UniProt Q925D8)
Assay: flow cytometry on ConA-activated murine CD8+ T-cells, control stain

UniProt Q925D8, sequence (Q925D8 whole entry): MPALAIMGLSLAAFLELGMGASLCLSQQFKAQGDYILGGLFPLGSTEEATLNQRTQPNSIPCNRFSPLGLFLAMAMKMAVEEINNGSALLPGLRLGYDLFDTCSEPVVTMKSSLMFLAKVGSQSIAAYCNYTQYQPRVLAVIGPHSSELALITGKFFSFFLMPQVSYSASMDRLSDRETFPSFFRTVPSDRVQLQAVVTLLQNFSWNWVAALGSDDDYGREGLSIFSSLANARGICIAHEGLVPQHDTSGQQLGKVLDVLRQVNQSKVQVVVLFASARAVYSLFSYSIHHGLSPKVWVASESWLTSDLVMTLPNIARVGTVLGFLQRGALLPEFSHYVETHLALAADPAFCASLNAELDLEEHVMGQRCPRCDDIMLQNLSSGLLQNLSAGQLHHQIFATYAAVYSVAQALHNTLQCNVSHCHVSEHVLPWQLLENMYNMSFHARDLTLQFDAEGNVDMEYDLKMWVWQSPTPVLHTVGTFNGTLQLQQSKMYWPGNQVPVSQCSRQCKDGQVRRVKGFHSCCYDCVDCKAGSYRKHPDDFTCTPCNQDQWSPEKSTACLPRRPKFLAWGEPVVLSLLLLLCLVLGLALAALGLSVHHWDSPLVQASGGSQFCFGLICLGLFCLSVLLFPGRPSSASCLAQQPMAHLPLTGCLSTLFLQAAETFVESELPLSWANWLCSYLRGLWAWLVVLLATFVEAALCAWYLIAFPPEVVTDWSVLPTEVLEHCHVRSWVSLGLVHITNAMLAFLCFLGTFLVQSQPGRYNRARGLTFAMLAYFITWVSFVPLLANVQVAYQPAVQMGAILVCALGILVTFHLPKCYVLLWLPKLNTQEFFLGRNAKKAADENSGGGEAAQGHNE

Substance: normal (non-immune) rat serum (antibody)
- percent of cells within the marker-1 (M1, unstained) region: 99%
